Measurements from patent US7851180B2, “Microorganism producing L-methionine precursor and the method of producing L-methionine precursor using the microorganism” (CJ Cheiljedang Corporation, priority 2008, dated 2010).
Changes are numbered by the printed parent chain.

B1: w.t.: wild type metA, homoserine O-succinyltransferase of E. coli (protein, UniProt P07623 2-309, looked up)
Homoserine …: PIRVPDELPAVNFLREENVFVMTTSRASGQEIRPLKVLILNLMPKKIETENQFLRLLSNSPLQVDIQLLRIDSRESRNTPAEHLNNFYCNFEDIQDQNFDGLIVTGAPLGLVEFNDVAYWPQIKQVLEWSKDHVTSTLFVCWAVQAALNILYGIPKQTRTEKLSGVYEHHILHPHALLTRGFDDSFLAPHSRYADFPAALIRDYTDLEILAETEEGDAYLFASKDKRIAFVTGHPEYDAQTLAQEFFRDVEAGLDPDVPYNYFPHNDPQNTPRASWRSHGNLLFTNWLNYYVYQITPYDLRHMNPTLD
B2: #11: feed-back resistant metA 11 gene product, amino acid sequence SEQ. ID. NO: 16 (protein, listed as Escherichia coli)
chain: MPIRVPDELPAVNFLREENVFVMSTSRASGQEIRPLKVLILNLMPKKIETENQFLRLLSNSPLQVDIQLLRIDSRESRNTPAEHLNNFYCNFEDIQDQNFDGLIVTGAPLGLVEFNDVAYWPQIKQVLEWSKDHVTSTLFVCWAVQAALNILYGIPKQTRTEKLSGVYEHHILHPHALLTRGFDDSFLAPHSRYADFPAALIRDYTDLEILAETEEGDAYLFASKDKRIAFVTGHPEYDAQTLAQEFFRDVEAGLDPDVPYNYFPHNDPQNTPRESWRSHGNLLFTNWLNYYVYQIAPYDLRHMYPTLD
B3: #10: feed-back resistant metA 10 gene product, amino acid sequence SEQ. ID. NO: 14 (protein, listed as Escherichia coli)
chain: B2 chain with S24T, K163Q, F222L, E275A, Q295R, A297T, Y305N
B4: #32: feed-back resistant metA 32 gene product, amino acid sequence SEQ. ID. NO: 18 (protein, listed as Escherichia coli)
chain: B2 chain with S24T, E275A, N290H, A297T, Y305N
B5: #41: feed-back resistant metA 41 gene product, amino acid sequence SEQ. ID. NO: 22 (protein, listed as Escherichia coli)
chain: B2 chain with S24T, N79S, F140I, E275A, Y291N, A297T, M304L, Y305N
B6: #37: feed-back resistant metA 37 gene product, amino acid sequence SEQ. ID. NO: 20 (protein, listed as Escherichia coli)
chain: B2 chain with S24T, S29P, E114G, F140S, E275A, A297T, Y305N

Assays:
[1] = tested on: homoserine O-succinyltransferase (metA); experiment: Feed back resistance of mutant metA in the presence of 100 mM methionine; format: biochemical, Escherichia coli; conditions: w/ 100 mM Met; control without Met = 100
Experimental: To increase production of O-succinylhomoserine which is L-methionine precursor, overexpression of feed-back resistant metA gene encoding homoserine O-succinyltransferase was performed. PCT/US2007/009146 discloses the method for preparing feed-back resistant metA gene and activity of that.
The sequence of the feed-back resistant metA 10 gene is represented in SEQ. ID. NO: 13 and the amino acid sequence encoding by the gene is represented in SEQ. ID. NO: 14. The sequence of metA 11 gene is represented in SEQ. ID. NO: 15 and the amino acid sequence encoding by the gene is represented in SEQ. ID. NO: 16. The sequence of metA 32 gene is represented in SEQ. ID. NO: 17 and the amino acid sequence encoding by the gene is represented in SEQ. ID. NO: 18. The sequence of metA 37 gene is represented in SEQ. ID. NO: 19 and the amino acid sequence encoding by the gene is represented in SEQ. ID. NO: 20. The sequence of metA 41 gene is represented in SEQ. ID. NO: 21 and the amino acid sequence encoding by the gene is represented in SEQ. ID. NO: 22 (PCT/US2007/009146).

W3-BTJA strain = experiment: O-succinylhomoserine production of feed back resistant metA in W3-BTJA strain, Erlenmeyer flask culture; format: cell-based, E. coli; conditions: for O-succinylhomoserine production (%): metA plasmid in W3-BTJA strain, flask culture 64 hours, HPLC, wild type = 100%; for O-succinylhomoserine production compared with wild type: metA vector in W3-BTJA strain, flask culture
Experimental: The vector was electroporated into W3-BTJA strain and production capacity of the strain was checked using Erlenmeyer flask culture as described in Example 2-1, O-succinylhomoserine production of modified strain is measured, based on 100% of O-succinylhomoserine production of wild type strain.
To measure the methionine precursor production of each strain constructed in Example 1, Erlenmeyer flask culture was performed. Each strain was cultured on LB plate media at 31° C. for overnight. A single colony was inoculated in 3 ml of LB medium, followed by culture at 31° C. for 5 hours. The culture solution was 200 fold diluted in 250 ml Erlenmeyer flask containing 25 ml of methionine precursor producing medium, followed by culture at 31° C., 200 rpm for 64 hours. HPLC was performed to compare with methionine precursor production capacity (Table 2 and Table 3).

Molecule | % of specific activity retention [1] | O-succinylhomoserine production (%) (W3-BTJA strain) | O-succinylhomoserine production compared with wild type (W3-BTJA strain)
B1 | 7.6% | 100% | 
B2 | 94% | 425% | the most effective production
B3 | 97% | 392% | the most effective production
B4 | 79% | 396% | the most effective production
B5 | 74% | 389% | 
B6 | 83% | 227% | 
